The record followed here is patent US20240218057A1 (ROCKEFELLER UNIVERSITY, published 2024).

Numbering of substitutions follows the chain as printed.

This assay concerns the target T1, SARS-CoV-2 receptor-binding domain (RBD), S protein residues 319-539 (SARS-CoV-2, UniProt P0DTC2 319-539).
T1 construct: also called WT RBD; SARS-COV-2 RBD
In words: ELISA on coated RBD. (In general: ELISA stands for enzyme-linked immunosorbent assay.)

B1: C887 (antibody, V domains shown)
VH: EVQLVESGGDLVQPGGSLRLSCAASGFTFTTYSMSWVRQAPGKGLEWISYINSGSANIHYADSVKGRFTVSRDNAKNSLYLQMNSLRDEDTAVYYCARGDCLSSSCYSLDYWGQGALVTVSS
VL: DIQMTQSPSSLSASVGDRVTITCRASQSITSYLSWYLQKPGEAPKLLIYAASILQSGVPSRFGGNGSGTDFTLTISSLQPEDFATFYCQQTYRSPLTFGGGTKVEIK
With B1, the EC50 (commonly the concentration that produces a half-maximal response) was 2.53 ng/mL.

B2: C891 (antibody, V domains shown)
VH: EVQLVESGGGLVKPGGSLRLSCAVSGFTFSNVWMSWVRQAPGKGLEWVGRIKSKTDGGTTDYAAPVKGRFTISRDDSKNTLYLQMNSLKTEDTAVYYCTSQLWLRGPGDYWGQGTLVTVSS
VL: NFMLTQPHSVSESPGKTVTISCTGSSGSIASNYVQWYQQRPGSAPTTVIYEDNQRPSGVPDRFSGSIDSSSNSASLTISGLKTEDEADYYCQSYDSSLNWVFGGGTKLTVL
B2 gave a concentration for a half-maximal effect (EC50) of 1.44 ng/mL.

B3: C892 (antibody, V domains shown)
VH: EVQLVESGGGLVKPGGSLKVSCTASGFTFTDAWMSWVRQAPGKGLEWVGRIKSRAYGGTTDYGAPVQGRFTISRDDSINTLYLQMNSLTAEDTAVYYCTSQLWLRGPGDYWGQGTLVTVSS
VL: B2 VL with Q35H, S43G, S69I, A87G, S97G, L98V
Take B3: the response was half-maximal at 2.9 ng/mL (EC50).

B4: C890 (antibody, V domains shown)
VH: QVQLVQSGAEVKKPGSSVKASCKASGGTFSTYTISWVRQAPGHGLEWMGRIIPIFGTTKYAQKFQGRVTITADESTTTAYLELSSLRSEDTAVYYCTINTQWDLVPRWGQGTLVTVSS
VL: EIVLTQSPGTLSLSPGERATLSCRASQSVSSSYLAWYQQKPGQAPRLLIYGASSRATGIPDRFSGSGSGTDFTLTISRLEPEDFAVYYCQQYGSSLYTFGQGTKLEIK
B4 had an EC50 of 2.2 ng/mL.

B5: C845 (antibody, V domains shown)
VH: QVQLQESGPGLVKPSQTLSLTCTVSGASISSGEYYWSWVRQPPGKGLEWVGYIYYSGSTYYNPSLKSRVTISVDTSKNHFSLKLKSLTAADTAVYFCATGGLSAFGELFPHDKWGQGTLVTVSS
VL: EIVLTQSPATLSLSPGERATLSCRASQSVGSDLAWYQQKPGQAPRLLIYDTSNRATGIPARFSGSGSGTDFTLTISSLDPADFAVYYCQQRTNWLFSFGPGTKVDIK
B5 registered an EC50 of 1.39 ng/mL.

B6: C844 (antibody, V domains shown)
VH: EVQLVESGGGLVKPGGSLRLSCVATGFSFSDAWMNWVRQAPGKGLEWVGRIRSEIADGTTDYAAPVKGRFTISRDDARNTLYLQMNSLEIEDTAVYYCTTGVVVVVSSSPDDAFDVWGQGTMVTVSS
VL: DIQMTQSPSSLSASVGDRVTITCRASQSIGHYLNWYQQKPGKAPKLLIYAASSLQSGVPSRFSGSGSGAGFTLTVNGLQPEDLATYYCQQYYTTPPTFGQGTKVEIK
For the molecule B6, the response was half-maximal at 1.28 ng/mL (EC50).

B7: C881 (antibody, V domains shown)
VH: EVQLVESGGGLIQPGGSLRLSCAVSGVAVSTNYMSWVRQAPGQGLEWVSTIYSGDTTYYSDSVKGRFTISRDNSKNTFYLQMNSLRVPDTAVYYCARLGGVFNGFNGSFDYWGQGTLVTVS
VL: QSALTQPASVSGSPGQSITISCIGTSSDFENYNLVSWYQQHPGKAPKVMIYEDTKRPSGVSNRFSGSKSANTASLTISGLQAEDEAEYYCCSYAGASTWVFGGGTRVTVV
Molecule B7 registered an EC50 of 1.44 ng/mL.

B8: C889 (antibody, V domains shown)
VH: EVQLVESGGGLVQPGGSLRLSCAVSGFTVSSNYMTWVRQAPGKGLEWVSLIYSGTSAFYADSVKGRFTISRDNSKNTLYLQMSSLRVNDTAIYYCARDLRKDDGYSYGAFDYWGQGTLVTVSS
VL: QSALTQPASVSGSPGQSITISCSGTSSDVGAHNYVSWYQQYPGKAPKLMIFDVTDRPSGVSNRFSGSKSGNTASLTISGLQAEDEADYYCTSYTTNRSWVFGGGTKVTVL
In turn, B8 displayed an EC50 of 4.25 ng/mL.

B9: C901 (antibody, V domains shown)
VH: QVQLVESGGGVVQPGRSLRIACGASGFTFSTYDMHWVRQAPVKGLEWVAVISRDGSGKFYADSVKGRFTISRDNSKKTLYLQMDSLRPEDTAMYYCARDFESRTWDPPKYYYALDVWGQGTTVTVSS
VL: DIQMTQSPSSLSASVGDRVTITCRASQSISTYLNWYQQKPGKAPSLLIYAASSLYSGVPSRFSGSGSGTDFSLTISSLQPEDFATYYCQQTYTTPTWTFGQGTKVEIK
B9 returned an EC50 of 2.16 ng/mL.
